Data on 18 molecules can be found in patent publication US20250163127A1.

One assay has as its target T1, CD96 (human) (UniProt P40200).
T1 sequence: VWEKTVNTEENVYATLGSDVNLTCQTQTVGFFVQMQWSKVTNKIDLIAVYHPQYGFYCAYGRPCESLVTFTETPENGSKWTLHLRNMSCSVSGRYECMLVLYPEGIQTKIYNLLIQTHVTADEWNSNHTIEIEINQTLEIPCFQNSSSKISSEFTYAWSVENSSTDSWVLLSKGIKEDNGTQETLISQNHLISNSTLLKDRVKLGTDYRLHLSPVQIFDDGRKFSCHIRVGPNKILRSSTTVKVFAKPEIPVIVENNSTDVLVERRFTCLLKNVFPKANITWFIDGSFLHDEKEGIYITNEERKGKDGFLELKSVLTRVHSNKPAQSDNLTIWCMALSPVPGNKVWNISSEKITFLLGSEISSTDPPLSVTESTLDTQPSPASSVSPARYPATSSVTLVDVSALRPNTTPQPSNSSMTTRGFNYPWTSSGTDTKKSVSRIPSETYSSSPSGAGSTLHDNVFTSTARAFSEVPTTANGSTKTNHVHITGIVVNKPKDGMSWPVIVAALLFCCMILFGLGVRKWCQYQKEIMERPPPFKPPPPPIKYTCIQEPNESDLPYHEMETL
The assay can be described thus: flow cytometry, transfected HEK293 cells. For orientation: In flow cytometry, cells or beads pass a laser one at a time.

The next assay concerns the target PD-L1 (human). The assay can be described thus: flow cytometry on HEK293 cells transfected with PD-L1.
The next assay deals with CTLA-4 (human). The assay is described as follows: flow cytometry on HEK293 cells transfected with CTLA4.
CTLA-4 (human), sequence (chain, as listed by the source): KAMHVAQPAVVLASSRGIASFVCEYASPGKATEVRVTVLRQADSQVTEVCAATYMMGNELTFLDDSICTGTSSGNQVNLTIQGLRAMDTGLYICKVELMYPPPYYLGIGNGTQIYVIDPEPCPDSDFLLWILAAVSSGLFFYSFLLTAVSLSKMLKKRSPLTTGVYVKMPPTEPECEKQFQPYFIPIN
Assay [1] addresses human PD-1 (human) (UniProt Q15116). The assay is described as follows: flow cytometry, Jurkat/PD-1 cells, 50 nM.
Assay [2] shares this target.
The target in assay [3] is CD28, full-length, expressed on transfected cells (Homo sapiens (Human)) (UniProt P10747). The assay is described as follows: flow cytometry, cells expressing target.
Substrate in assay [4]: ICOS as used in the OD read-out of Table E15A (Homo sapiens (Human)) (UniProt Q9Y6W8)
The assay can be described thus: OD read-out, format not told.

For assay [5], the target named is human PD-1 (human) (UniProt Q15116). The assay is described as follows: flow cytometry, Jurkat/PD-1 cells.
human PD-1 (human), sequence (Q15116 25-288): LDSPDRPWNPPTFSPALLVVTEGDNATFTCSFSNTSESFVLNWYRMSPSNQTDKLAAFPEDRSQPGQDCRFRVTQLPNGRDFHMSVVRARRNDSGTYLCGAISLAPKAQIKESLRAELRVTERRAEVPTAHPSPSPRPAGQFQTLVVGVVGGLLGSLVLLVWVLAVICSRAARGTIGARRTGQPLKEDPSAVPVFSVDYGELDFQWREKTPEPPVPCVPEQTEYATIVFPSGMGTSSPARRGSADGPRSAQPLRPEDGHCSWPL
Assay [6] shares this target. The assay can be described thus: flow cytometry, CHO/PD-1 cells, 100 nM, anti-Flag.
For the next assay, the target named is human CTLA-4 (human). The assay can be described thus: flow cytometry, CHO/CTLA-4 cells, 100 nM, anti-Flag.
For the next assay, the target named is CD28 (human) (UniProt P10747). The assay is described as follows: flow cytometry, Jurkat cells (endogenous CD28), 100 nM, anti-Flag.
The target in another assay is CD80 (human). The assay can be described thus: flow cytometry, cells expressing CD80, 20 nM.
CD80 (human), sequence (chain, as listed by the source): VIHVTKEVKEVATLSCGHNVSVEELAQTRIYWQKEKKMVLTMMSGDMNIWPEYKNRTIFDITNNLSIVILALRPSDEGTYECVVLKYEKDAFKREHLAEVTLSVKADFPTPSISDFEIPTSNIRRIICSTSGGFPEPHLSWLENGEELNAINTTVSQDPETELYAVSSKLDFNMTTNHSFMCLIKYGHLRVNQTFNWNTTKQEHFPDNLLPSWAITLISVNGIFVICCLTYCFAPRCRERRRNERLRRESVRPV
Assay [7] concerns the target human PD-1 (human) (UniProt Q15116). The assay is described as follows: flow cytometry, cells expressing PD-1, 20 nM.

PD-L1 (human), sequence (chain, as listed by the source): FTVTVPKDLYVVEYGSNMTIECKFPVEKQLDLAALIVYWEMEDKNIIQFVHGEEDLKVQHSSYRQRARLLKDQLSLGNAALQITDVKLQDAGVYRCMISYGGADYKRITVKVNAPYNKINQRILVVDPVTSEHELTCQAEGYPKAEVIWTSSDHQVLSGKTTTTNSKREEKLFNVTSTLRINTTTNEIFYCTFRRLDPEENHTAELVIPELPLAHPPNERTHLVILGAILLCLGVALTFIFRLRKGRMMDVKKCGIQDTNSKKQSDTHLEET

B1: variant CD155 IgV-Fc, T45Q, S52R, L104E (Fc fusion)
chain: WPPPGTGDVVVQAPTQVPGFLGDSVTLPCYLQVPNMEVTHVSQLQWARHGERGSMAVFHQTQGPSYSESKRLEFVAARLGAELRNASLRMFGLRVEDEGNYTCEFVTFPQGSRSVDIWLRVL
Turning to B1, the MFI at 100 nM with CD96 (human) came to 3750.

B2: Variant CD80 E35D/A71D Fc fusion (Table E14B) (Fc fusion)
chain: VIHVTKEVKEVATLSCGHNVSVEELAQTRIYWQKDKKMVLTMMSGDMNIWPEYKNRTIFDITNNLSIVILDLRPSDEGTYECVVLKYEKDAFKREHLAEVT
B2 displayed an MFI at 22.2 nM in the assay with PD-L1 (human) of 13800 MFI. In the assay with CTLA-4 (human), this molecule returned an MFI at 66.6 nM of 150000 MFI.

B3: Variant CD80 E35G/K54E/A71D/L72P Fc fusion (Fc fusion)
chain: VIHVTKEVKEVATLSCGHNVSVEELAQTRIYWQKGKKMVLTMMSGDMNIWPEYENRTIFDITNNLSIVILDPRPSDEGTYECVVLKYEKDAFKREHLAEVT
B3 gave an MFI at 22.2 nM with PD-L1 (human) of 1580 MFI.

B4: variant PD-L2 IgV H15Q/Q72H/V89D Fc fusion (Fc fusion)
chain: LFTVTVPKELYIIEQGSNVTLECNFDTGSHVNLGAITASLQKVENDTSPHRERATLLEEQLPLGKASFHIPHVQVRDEGQYQCIIIYGDAWDYKYLTLKVKA
B4 registered an MFI at 50 nM with human PD-1 (human) [1] of 12600 MFI. In addition, the IFN gamma levels pg/mL (MLR) with human PD-1 (human) [2] was 1270 pg/mL.

B5: ICOSL ECD-Fc N52S (Fc fusion)
chain: DTQEKEVRAMVGSDVELSCACPEGSRFDLNDVYVYWQTSESKTVVTYHIPQSSSLENVDSRYRNRALMSPAGMLRGDFSLRLFNVTPQDEQKFHCLVLSQSLGFQEVLSVEVTLHVAANFSVPVVSAPHSPSQDELTFTCTSINGYPRPNVYWINKTDNSLLDQALQNDTVFLNMRGLYDVVSVLRIARTPSVNIGCCIENVLLQQNLTVGSQTGNDIGERDKITENPVSTGEKNAAT
As to B5, in assay [3], the MFI came out at 162 MFI and the parental ratio was 9 ratio to WT. Further, in [4], the OD is 1.33 OD and the parental ratio was 1.55 ratio to WT.

B6: ICOSL ECD-Fc N52S/Y146C/Y152C (Fc fusion)
chain: DTQEKEVRAMVGSDVELSCACPEGSRFDLNDVYVYWQTSESKTVVTYHIPQSSSLENVDSRYRNRALMSPAGMLRGDFSLRLFNVTPQDEQKFHCLVLSQSLGFQEVLSVEVTLHVAANFSVPVVSAPHSPSQDELTFTCTSINGCPRPNVCWINKTDNSLLDQALQNDTVFLNMRGLYDVVSVLRIARTPSVNIGCCIENVLLQQNLTVGSQTGNDIGERDKITENPVSTGEKNAAT
For B6, in assay [3], the MFI was 39 MFI and the parental ratio was 2.17 ratio to WT. Moreover, in assay [4], the OD is 1.26 OD and the parental ratio is 1.47 ratio to WT.

B7: ICOSL ECD-Fc F120S/Y152H/N201S (Fc fusion)
chain: DTQEKEVRAMVGSDVELSCACPEGSRFDLNDVYVYWQTSESKTVVTYHIPQNSSLENVDSRYRNRALMSPAGMLRGDFSLRLFNVTPQDEQKFHCLVLSQSLGFQEVLSVEVTLHVAANSSVPVVSAPHSPSQDELTFTCTSINGYPRPNVHWINKTDNSLLDQALQNDTVFLNMRGLYDVVSVLRIARTPSVNIGCCIESVLLQQNLTVGSQTGNDIGERDKITENPVSTGEKNAAT
As to B7, in assay [3], the MFI was found to be 16 MFI and the parental ratio is 0.89 ratio to WT. For the same molecule, in assay [4], the OD came out at 0.63 OD and the parental ratio is 0.73 ratio to WT.

B8: ICOSL ECD-Fc N52S/Y152H (Fc fusion)
chain: DTQEKEVRAMVGSDVELSCACPEGSRFDLNDVYVYWQTSESKTVVTYHIPQSSSLENVDSRYRNRALMSPAGMLRGDFSLRLFNVTPQDEQKFHCLVLSQSLGFQEVLSVEVTLHVAANFSVPVVSAPHSPSQDELTFTCTSINGYPRPNVHWINKTDNSLLDQALQNDTVFLNMRGLYDVVSVLRIARTPSVNIGCCIENVLLQQNLTVGSQTGNDIGERDKITENPVSTGEKNAAT
As to B8, in assay [3], the MFI was determined as 68 MFI and the parental ratio was 3.78 ratio to WT. Also, in assay [4], the OD was determined as 0.85 OD and the parental ratio is 0.99 ratio to WT.

B9: ICOSL ECD-Fc N52S/D158G (Fc fusion)
chain: DTQEKEVRAMVGSDVELSCACPEGSRFDLNDVYVYWQTSESKTVVTYHIPQSSSLENVDSRYRNRALMSPAGMLRGDFSLRLFNVTPQDEQKFHCLVLSQSLGFQEVLSVEVTLHVAANFSVPVVSAPHSPSQDELTFTCTSINGYPRPNVYWINKTGNSLLDQALQNDTVFLNMRGLYDVVSVLRIARTPSVNIGCCIENVLLQQNLTVGSQTGNDIGERDKITENPVSTGEKNAAT
As for B9, in assay [3], the MFI was determined as 39 MFI and the parental ratio is 2.17 ratio to WT. Also, in [4], the OD worked out at 1.33 OD and the parental ratio was 1.55 ratio to WT.

B10: ICOSL ECD-Fc N52D (Fc fusion)
chain: DTQEKEVRAMVGSDVELSCACPEGSRFDLNDVYVYWQTSESKTVVTYHIPQDSSLENVDSRYRNRALMSPAGMLRGDFSLRLFNVTPQDEQKFHCLVLSQSLGFQEVLSVEVTLHVAANFSVPVVSAPHSPSQDELTFTCTSINGYPRPNVYWINKTDNSLLDQALQNDTVFLNMRGLYDVVSVLRIARTPSVNIGCCIENVLLQQNLTVGSQTGNDIGERDKITENPVSTGEKNAAT
Regarding B10, in assay [3], the MFI was determined as 130 MFI and the parental ratio is 7.22 ratio to WT. Moreover, in [4], the OD turned out to be 1.59 OD and the parental ratio was 1.85 ratio to WT.

B11: PD-L1 IgV-Fc I20L/I36T/N45D/I47T (Fc fusion)
chain: FTVTVPKDLYVVEYGSNMTLECKFPVEKQLDLAALTVYWEMEDKDITQFVHGEEDLKVQHSSYRQRARLLKDQLSLGNAALQITDVKLQDAGVYRCMISYGGADYKRITVKVNA
In the assay with human PD-1 (human) [5], B11 returned a Fold increase over wildtype PD-L1 IgV-Fc of 0.6 fold and an MFI at 50 nM of 3120.

B12: ICOSL 2264 (monomeric variant ICOSL IgV N52H/N57Y/Q100R) (ligand)
chain: DTQEKEVRAMVGSDVELSCACPEGSRFDLNDVYVYWQTSESKTVVTYHIPQHSSLEYVDSRYRNRALMSPAGMLRGDFSLRLFNVTPQDEQKFHCLVLSRSLGFQEVLSVEVTLHVAANFSV
As for B12, the MFI with human PD-1 (human) [6] came out at 1510; in the assay with human CTLA-4 (human), 70800; with CD28 (human), 16100.

B13: Full length ECD of PD-L2, Fc fusion (Fc fusion)
chain: LFTVTVPKELYIIEHGSNVTLECNFDTGSHVNLGAITASLQKVENDTSPHRERATLLEEQLPLGKASFHIPQVQVRDEGQYQCIIIYGVAWDYKYLTLKVKASYRKINTHILKVPETDEVELTCQATGYPLAEVSWPNVSVPANTSHSRTPEGLYQVTSVLRLKPPPGRNFSCVFWNTHVRELTLASIDLQSQMEPRTHPT
B13 gave an MFI at 50 nM with human PD-1 (human) [1] of 2140 MFI. In the assay with human PD-1 (human) [2], this molecule registered an IFN gamma levels pg/mL (MLR) of 1170 pg/mL.

B14: variant PD-L1 K57R/S99G/R195G Fc fusion (Fc fusion)
chain: FTVTVPKDLYVVEYGSNMTIECKFPVEKQLDLAALIVYWEMEDKNIIQFVHGEEDLRVQHSSYRQRARLLKDQLSLGNAALQITDVKLQDAGVYRCMIGYGGADYKRITVKVNAPYNKINQRILVVDPVTSEHELTCQAEGYPKAEVIWTSSDHQVLSGKTTTTNSKREEKLFNVTSTLRINTTTNEIFYCTFRGLDPEENHTAELVIPELPLAHPPNER
For the molecule B14, in the assay with CD80 (human), the MFI at 20 nM is 11000 MFI.

B15: variant PD-L1 N17D/M97L/S99G Fc fusion (Fc fusion)
chain: FTVTVPKDLYVVEYGSDMTIECKFPVEKQLDLAALIVYWEMEDKNIIQFVHGEEDLKVQHSSYRQRARLLKDQLSLGNAALQITDVKLQDAGVYRCLIGYGGADYKRITVKVNAPYNKINQRILVVDPVTSEHELTCQAEGYPKAEVIWTSSDHQVLSGKTTTTNSKREEKLFNVTSTLRINTTTNEIFYCTFRRLDPEENHTAELVIPELPLAHPPNER
For B15, in the assay with human PD-1 (human) [7], the MFI at 20 nM came out at 10100 MFI.

B16: variant PD-L1 I36T/I83T/M97L/K144E/P198T Fc fusion (Fc fusion)
chain: FTVTVPKDLYVVEYGSNMTIECKFPVEKQLDLAALTVYWEMEDKNIIQFVHGEEDLKVQHSSYRQRARLLKDQLSLGNAALQTTDVKLQDAGVYRCLISYGGADYKRITVKVNAPYNKINQRILVVDPVTSEHELTCQAEGYPEAEVIWTSSDHQVLSGKTTTTNSKREEKLFNVTSTLRINTTTNEIFYCTFRRLDTEENHTAELVIPELPLAHPPNER
Regarding B16, the MFI at 20 nM in the assay with human PD-1 (human) [7] worked out at 62 MFI.

B17: variant PD-L1 I36T/M97L/Q155H/F193S/N201Y Fc fusion (Fc fusion)
chain: FTVTVPKDLYVVEYGSNMTIECKFPVEKQLDLAALTVYWEMEDKNIIQFVHGEEDLKVQHSSYRQRARLLKDQLSLGNAALQITDVKLQDAGVYRCLISYGGADYKRITVKVNAPYNKINQRILVVDPVTSEHELTCQAEGYPKAEVIWTSSDHHVLSGKTTTTNSKREEKLFNVTSTLRINTTTNEIFYCTSRRLDPEEYHTAELVIPELPLAHPPNER
In the assay with CD80 (human), B17 registered an MFI at 20 nM of 1250 MFI.

B18: variant PD-L1 Y10F/M18V/S99G/Q138R/T203A Fc fusion (Fc fusion)
chain: FTVTVPKDLFVVEYGSNVTIECKFPVEKQLDLAALIVYWEMEDKNIIQFVHGEEDLKVQHSSYRQRARLLKDQLSLGNAALQITDVKLQDAGVYRCMIGYGGADYKRITVKVNAPYNKINQRILVVDPVTSEHELTCRAEGYPKAEVIWTSSDHQVLSGKTTTTNSKREEKLFNVTSTLRINTTTNEIFYCTFRRLDPEENHAAELVIPELPLAHPPNER
As for B18, in the assay with human PD-1 (human) [7], the MFI at 20 nM amounted to 70 MFI.
